# Assay results reported in article PMC3302801, “Regulation of the vapBC-1 Toxin-Antitoxin Locus in Nontypeable Haemophilus influenzae”.
# T1: VapB-1 (Haemophilus influenzae (nontypeable, R2866)) (UniProt E4QWH3)
# T1 sequence: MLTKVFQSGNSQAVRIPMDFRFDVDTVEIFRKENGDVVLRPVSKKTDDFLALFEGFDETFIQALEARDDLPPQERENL
# T2: VapB-1 (Haemophilus influenzae (nontypeable, …, UniProt E4QWH3 1-78))
# T2 sequence: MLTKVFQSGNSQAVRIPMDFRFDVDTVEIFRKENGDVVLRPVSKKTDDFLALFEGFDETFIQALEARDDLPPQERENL
# Experiments:
# [1] = molecular target: T1, VapB-1 (Haemophilus influenzae (nontypeable, R2866)); test: DNase I footprinting; details: EMSA: 20 mM HEPES pH 7.5, 100 mM NaCl, 0.1 mM EDTA, 1 mM DTT, 50 ug/mL BSA, 5% glycerol, 1 nM DNA, 25 C (gel 4 C); DNase I: 25 mM Tris-HCl pH 7.4, 70 mM KCl …
# VapB-1 [2] = molecular target: T2, VapB-1; test: EMSA; up to 300:1; EMSA: 20 mM HEPES pH 7.5, 100 mM NaCl, 0.1 mM EDTA, 1 mM DTT, 50 ug/mL BSA, 5% glycerol, 1 nM DNA, 25 C (gel 4 C); DNase I: 25 mM Tris-HCl pH 7.4, 70 mM KCl, 7; details: protein: recombinant; tags: C-terminal polyhistidine (pET24b); chain copies: 2; label: 5'-32P sense strand; blunt
# VapB-1 [3] = molecular target: T2, VapB-1; test: EMSA; 300:1; EMSA: 20 mM HEPES pH 7.5, 100 mM NaCl, 0.1 mM EDTA, 1 mM DTT, 50 ug/mL BSA, 5% glycerol, 1 nM DNA, 25 C (gel 4 C); DNase I: 25 mM Tris-HCl pH 7.4, 70 mM KCl, 7; details: protein: recombinant; tags: C-terminal polyhistidine (pET24b); chain copies: 2; blunt
molecule,measurement,setting,value
GTTAGGATCCTGAAACACTTTAGTAAGCATATTTACCCTCTCGTATATACTATGTATTTAATAAGTATATACTAATCATTTCAATTGCTGTATGCAAGTAAGAAGATCAAATTACCGTTGTTTTATTTAACCGCAATCATCGAGCGAATTCTAA (double strand) [153 bp vapBC-1 locus control region],binding,[1],no binding
50TIR (dsDNA) DNA 1: AATGATTAGTATATACTTATTAAATACATAGTATATACGAGAGGGTAAAT DNA 2: ATTTACCCTCTCGTATATACTATGTATTTAATAAGTATATACTAATCATT,binding result,VapB-1 [2],no binding
50US (dsDNA) DNA 1: AACAACGGTAATTTGATCTTCTTACTTGCATACAGCAATTGAAATGATTA DNA 2: TAATCATTTCAATTGCTGTATGCAAGTAAGAAGATCAAATTACCGTTGTT,binding result,VapB-1 [3],no binding
